Experimental data as given in publication PMC2794250, “An MDM2 antagonist (MI-319) restores p53 functions and increases the life span of orally treated follicular lymphoma bearing animals” (2009).

Molecular target: recombinant His-tagged MDM2 (amino acids 1-118) (human) (UniProt Q00987)
Test: FP; competition with PMDM6-F

Substance: natural p53 peptide (from UniProt P04637)
- Ki: 6.7 µM
